Experimental data taken from article PMC3154279, “ADP-Ribosylation Factor 6 Mediates E-Cadherin Recovery by Chemical Chaperones” (PLoS ONE, 2011).

Columns and labels:
Assay in all cases: proximity ligation; Duolink PLA on methanol-fixed CHO cells stably expressing WT or mutant hE-cadherin, treated with medium or 2% DMSO for 24 h; antibody pairs against E-cadherin and PIP5K1C, p120 or β-catenin; spots per cell counted (BlobFinder), relative number of blobs per cell, n = 3
β-catenin = molecular target: T1, β-catenin (Chinese hamster (endogenous in CHO), UniProt G3H996 1-781); settings: partners not purified
T1 construct: β-catenin, endogenous in CHO (Chinese hamster ovary) cells, detected with an anti-β-catenin antibody; source: endogenous, CHO cells, fixed
T1 sequence (looked up): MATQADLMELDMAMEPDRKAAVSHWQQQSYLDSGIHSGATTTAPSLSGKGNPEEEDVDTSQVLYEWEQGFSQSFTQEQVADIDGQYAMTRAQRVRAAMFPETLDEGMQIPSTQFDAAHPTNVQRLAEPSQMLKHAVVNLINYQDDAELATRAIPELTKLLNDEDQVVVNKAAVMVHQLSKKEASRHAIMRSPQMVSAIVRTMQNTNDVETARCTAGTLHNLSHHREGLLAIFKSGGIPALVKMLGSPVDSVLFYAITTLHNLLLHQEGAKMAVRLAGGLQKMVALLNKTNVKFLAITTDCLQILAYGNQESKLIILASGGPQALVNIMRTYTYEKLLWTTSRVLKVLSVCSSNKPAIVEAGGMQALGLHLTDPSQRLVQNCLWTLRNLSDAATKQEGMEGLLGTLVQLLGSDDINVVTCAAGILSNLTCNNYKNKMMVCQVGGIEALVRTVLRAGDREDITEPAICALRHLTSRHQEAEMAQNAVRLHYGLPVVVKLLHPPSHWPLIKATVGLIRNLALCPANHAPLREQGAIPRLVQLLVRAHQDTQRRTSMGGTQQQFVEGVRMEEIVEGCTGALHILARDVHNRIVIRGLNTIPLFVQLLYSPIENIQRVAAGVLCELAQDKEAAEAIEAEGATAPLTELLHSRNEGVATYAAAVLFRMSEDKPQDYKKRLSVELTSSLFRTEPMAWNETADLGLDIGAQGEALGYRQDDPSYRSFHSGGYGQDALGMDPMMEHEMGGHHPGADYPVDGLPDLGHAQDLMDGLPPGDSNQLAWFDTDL

[1] = molecular target: Type Iγ phosphatidylinositol phosphate kinase (PIPKIγ) (Chinese hamster (endogenous in CHO))
[2] = molecular target: p120-catenin (Chinese hamster (endogenous in CHO))

fold increase of PLA blobs per cell with 2% DMSO against untreated WT (β-catenin): 1.8 fold
fold increase of PLA blobs per cell with 2% DMSO against untreated WT [1]: 2.3 fold
fold increase of PLA blobs per cell with 2% DMSO against untreated WT [2]: 4.2 fold
B1: WT human E-cadherin (natural protein, UniProt P12830 155-882, looked up)
chain: DWVIPPISCPENEKGPFPKNLVQIKSNKDKEGKVFYSITGQGADTPPVGVFIIERETGWLKVTEPLDRERIATYTLFSHAVSSNGNAVEDPMEILITVTDQNDNKPEFTQEVFKGSVMEGALPGTSVMEVTATDADDDVNTYNAAIAYTILSQDPELPDKNMFTINRNTGVISVVTTGLDRESFPTYTLVVQAADLQGEGLSTTATAVITVTDTNDNPPIFNPTTYKGQVPENEANVVITTLKVTDADAPNTPAWEAVYTILNDDGGQFVVTTNPVNNDGILKTAKGLDFEAKQQYILHVAVTNVVPFEVSLTTSTATVTVDVLDVNEAPIFVPPEKRVEVSEDFGVGQEITSYTAQEPDTFMEQKITYRIWRDTANWLEINPDTGAISTRAELDREDFEHVKNSTYTALIIATDNGSPVATGTGTLLLILSDVNDNAPIPEPRTIFFCERNPKPQVINIIDADLPPNTSPFTAELTHGASANWTIQYNDPTQESIILKPKMALEVGDYKINLKLMDNQNKDQVTTLEVSVCDCEGAAGVCRKAQPVEAGLQIPAILGILGGILALLILILLLLLFLRRRAVVKEPLLPPEDDTRDNVYYYDEEGGGEEDQDFDLSQLHRGLDARPEVTRNDVAPTLMSVPRYLPRPANPDEIGNFIDENLKAADTDPTAPPYDSLLVFDYEGSGSEAASLSSLNSSESDKDQDYDYLNEWGNRFKKLADMYGGGEDD
notes: E-cadherin, human, wild type, expressed from a transduced vector in CHO cells; also called WT hE-cad; WT hEcadherin; source: CHO cells (ATCC CCL-61), stably transduced, in fixed cells
